# Source: article PMC5614712 (Biochemistry and Biophysics Reports, 2017)
# B1: Y93H ttCK (uridine-cytidine kinase TTHA0578 of Thermus thermophilus HB8, Tyr93 replaced by His) (enzyme)
# chain: MSAPKPFVIGIAGGTASGKTTLAQALARTLGERVALLPMDHYYKDLGHLPLEERLRVNYDHPDAFDLALYLEHAQALLRGLPVEMPVYDFRAHTRSPRRTPVRPAPVVILEGILVLYPKELRDLMDLKVFVDADADERFIRRLKRDVLERGRSLEGVVAQYLEQVKPMHLHFVEPTKRYADVIVPRGGQNPVALEMLAAKALARLARMGAA
# Target: the molecule itself
# Experiment: crystal structure
protein,measurement,value
B1,stoichiometry N,4
